Measurements: patent US20240084003A1 (SIMCERE ZAIMING PHARMACEUTICAL, published 2024)
Blank lines part the entries; values can stand above or below the binder they belong to.

What was measured:
[1] = biological target: T1, murine CD22 protein (ACROBiosystems, SI2-M52Ha) (murine, UniProt P35329 22-708); test: ELISA, coated murine CD22, 0.1 nM Ab
T1 construct: extracellular domain; also called murine CD22-ECD; murine CD22-ECD-His
T1 sequence (looked up): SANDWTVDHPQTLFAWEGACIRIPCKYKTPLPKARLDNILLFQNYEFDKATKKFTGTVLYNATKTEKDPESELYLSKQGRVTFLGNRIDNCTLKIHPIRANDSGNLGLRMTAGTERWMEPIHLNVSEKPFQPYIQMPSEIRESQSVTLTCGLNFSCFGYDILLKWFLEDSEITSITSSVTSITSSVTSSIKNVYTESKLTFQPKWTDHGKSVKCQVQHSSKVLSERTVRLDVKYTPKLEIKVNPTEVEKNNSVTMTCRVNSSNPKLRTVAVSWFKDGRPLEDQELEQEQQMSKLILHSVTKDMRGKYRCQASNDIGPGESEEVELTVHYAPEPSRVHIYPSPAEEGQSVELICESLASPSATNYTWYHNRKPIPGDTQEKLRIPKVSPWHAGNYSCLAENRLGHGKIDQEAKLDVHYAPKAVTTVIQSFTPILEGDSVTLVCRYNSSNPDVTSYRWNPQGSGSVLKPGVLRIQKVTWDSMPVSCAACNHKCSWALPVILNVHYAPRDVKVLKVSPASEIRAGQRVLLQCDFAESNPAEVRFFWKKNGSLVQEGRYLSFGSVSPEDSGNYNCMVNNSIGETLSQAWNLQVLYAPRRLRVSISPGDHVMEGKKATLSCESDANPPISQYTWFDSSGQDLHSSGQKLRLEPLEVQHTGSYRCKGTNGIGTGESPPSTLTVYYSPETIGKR
Method: (§1) In order to detect the binding activity of CD22 human-murine chimeric antibodies to CD22 protein, the purified human CD22-ECD-His protein obtained in Example 2 was diluted with PBS to a final concentration of 2 μg/mL, and then added to 96-well ELISA plate at 100 μl/well. The plate was sealed with plastic film and incubated overnight at 4° C., the plate was washed 2 times with PBS the next day, and then a blocking solution [PBS+2% (w/w) BSA] was added for blocking at room temperature for 2 hours. […] After incubation at 37° C. for 2 hours, the plate was washed 3 times with PBS. HRP (horseradish peroxidase)-labeled secondary antibody (purchased from Sigma, catalog number: A0170) was added, and incubated at 37° C. for 2 hours, and the plate was washed 5 times with PBS. TMB substrate was added at 50 μl/well, and incubated at room temperature for 30 minutes, then a stop solution (1.0 N HCl) was added at 50 μl/well.
(§2) In order to detect the species cross-binding activity of the chimeric antibodies, an ELISA plate was coated with commercial murine CD22 protein (ACROBiosystems, catalog number: SI2-M52Ha) and monkey CD22 protein (ACROBiosystems, catalog number: SI2-R52Ha), respectively, and the ELISA detection was performed according to the method in Example 5.1.

[2] = biological target: T2, human CD22, endogenous on Raji cells (human, UniProt P20273 20-847); test: FACS, Raji cells
T2 construct: whole, on cells; Endogenous protein of the Raji cell line
T2 sequence (looked up): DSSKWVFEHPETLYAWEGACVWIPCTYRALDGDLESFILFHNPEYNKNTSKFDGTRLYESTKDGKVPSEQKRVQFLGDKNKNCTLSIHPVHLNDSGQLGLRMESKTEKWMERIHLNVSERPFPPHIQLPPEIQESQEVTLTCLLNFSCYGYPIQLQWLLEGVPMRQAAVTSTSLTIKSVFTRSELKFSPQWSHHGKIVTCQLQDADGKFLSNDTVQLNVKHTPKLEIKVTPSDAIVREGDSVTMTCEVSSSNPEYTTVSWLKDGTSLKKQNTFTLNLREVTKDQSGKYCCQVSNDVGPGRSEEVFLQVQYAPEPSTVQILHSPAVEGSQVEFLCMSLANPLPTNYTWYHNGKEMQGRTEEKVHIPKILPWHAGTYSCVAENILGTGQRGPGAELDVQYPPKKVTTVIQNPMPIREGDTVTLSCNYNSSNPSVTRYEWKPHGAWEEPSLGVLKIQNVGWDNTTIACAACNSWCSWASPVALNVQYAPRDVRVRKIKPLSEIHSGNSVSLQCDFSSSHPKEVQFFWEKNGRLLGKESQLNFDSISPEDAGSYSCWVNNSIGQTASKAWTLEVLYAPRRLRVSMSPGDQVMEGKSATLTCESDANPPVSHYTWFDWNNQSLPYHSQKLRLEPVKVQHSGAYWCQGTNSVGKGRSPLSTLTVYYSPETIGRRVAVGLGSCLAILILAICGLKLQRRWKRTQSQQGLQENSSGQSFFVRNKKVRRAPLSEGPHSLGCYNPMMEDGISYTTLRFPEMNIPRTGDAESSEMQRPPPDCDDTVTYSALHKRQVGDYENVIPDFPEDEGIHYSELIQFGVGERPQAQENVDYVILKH
Text: (§3) The required cells were scale-up cultured in a T-75 cell culture flask to the logarithmic growth phase. For the adherent cell CHO-K1, the medium was aspirated, the cells were washed 2 times with PBS buffer, and then digested with trypsin. After the digestion was terminated, the cells were washed 2 times with PBS buffer. For suspension cell Raji, the medium supernatant was directly centrifuged and discarded, and the cell pellet was washed 2 times with PBS. After counting the cells in the previous step, the cell pellet was resuspended with [PBS+2% (w/w) BSA] blocking solution to 2×10⁶ cells/ml, and added to a 96-well FACS reaction plate at 50 μl/well, and then the chimeric antibody test sample was added at 50 μl/well, and incubated on ice for 2 hours. The mixture was centrifuged and washed 3 times with PBS buffer, Alexa Flour 488-labeled secondary antibody (purchased from Invitrogen, catalog number: A-11013) was added at 50 μl/well, and incubated on ice for 1 hour. The obtained mixture was centrifuged and washed 5 times with PBS, and FACS (FACS Canto™, purchased from BD Company) was used for detection and result analysis. Data analysis was performed by software (CellQuest) to obtain the mean fluorescence density (MFI)of the cells. And then software (GraphPad Prism8) was used for analysis, data fitting, and EC50 value calculation. […] The same method was used to detect the binding of the chimeric antibodies to endogenous CD22-negative cell MoLT4 cells (purchased from ATCC, CRL-1582) and CHO-K1 cells.

[3] = biological target: T3, human CD22, full length, on CHO-K1-human CD22 2C4 cells (human, UniProt P20273 20-847); test: FACS, CHO-K1-human CD22 2C4 cells
T3 construct: Full-length human CD22 (NCBI NP_001762.2) stably transfected into CHO-K1
T3 sequence: T2 sequence (looked up)
Text: as §3

[4] = biological target: T1, murine CD22 protein (ACROBiosystems, …); test: ELISA, coated murine CD22, 10 nM Ab
Method: as §1, §2

[5] = biological target: T1, murine CD22 protein (ACROBiosystems, …); test: ELISA, coated murine CD22, 0.0001 nM Ab
Method: as §1, §2

[6] = biological target: T1, murine CD22 protein (ACROBiosystems, …); test: ELISA, coated murine CD22, 0.001 nM Ab
Method: as §1, §2

[7] = biological target: T1, murine CD22 protein (ACROBiosystems, …); test: ELISA, coated murine CD22, 100 nM Ab
Method: as §1, §2

[8] = biological target: T1, murine CD22 protein (ACROBiosystems, …); test: ELISA, coated murine CD22, 0.00001 nM Ab
Method: as §1, §2

[9] = biological target: T1, murine CD22 protein (ACROBiosystems, …); test: ELISA, coated murine CD22, 0.01 nM Ab
Method: as §1, §2

OD450 [1]: 0.05 OD450
EC50 [2]: 0.89 nM
Maximum mean fluorescence intensity [2]: 23700 MFI
EC50 [3]: 1.07 nM
Maximum mean fluorescence intensity [3]: 27900 MFI
OD450 [4]: 0.06 OD450
OD450 [5]: 0.05 OD450
OD450 [6]: 0.05 OD450
OD450 [7]: 0.06 OD450
OD450 [8]: 0.06 OD450
OD450 [9]: 0.05 OD450
B1: F1.120.15 human-murine chimeric antibody (antibody, human IgG1, kappa, V domains shown)
VH: QVQLQQSGPELVKPGASVKISCKASGNAFSNSWMNWVKQRPGKGLEWIGRVYSEDGDTQYNGKFRDKATLTADRSTSTAYMQLSSLTSEDSAVYFCARWLIYYGTYGAMDYWGQGTSVTVSS
VL: DIQMTQTTSSLSASLGDRVTISCRASQDINNYLNWYHQKPDGTVKLLIYFTSRPYSGVPSRFSGSGSGTDYSLTISNLEQEDIATYFCQQGNTLPWTFGGGTKLEIKR
notes: Chimeric, human IgG1 / kappa

OD450 [1]: 0.05 OD450
EC50 [2]: 0.16 nM
Maximum mean fluorescence intensity [2]: 25300 MFI
EC50 [3]: 0.32 nM
Maximum mean fluorescence intensity [3]: 31500 MFI
OD450 [4]: 0.06 OD450
OD450 [5]: 0.06 OD450
OD450 [6]: 0.05 OD450
OD450 [7]: 0.08 OD450
OD450 [8]: 0.06 OD450
OD450 [9]: 0.05 OD450
B2: F1.216.2 human-murine chimeric antibody (antibody, human IgG1, kappa, V domains shown)
VH: QVQLQQSGPEVVRPGASVKISCKASGYAFSSSWMNWMKQRPGKALEWIGRIYPGDGDTNYSGEFKVKATLTADKSSSTAYMQLSSLTSEDSAVYFCAREGSYYSNPWYFDYWGQGTTLTVSS
VL: DVLVTQTPLSLPVSLGDQASISCRSSQSIVQSNGDTYLEWYLQKPGQSPKLLIYKVSNRFSGVPDRFSGSGSGTDFTLKISRVEAEDLGVYYCFQGSHVPFTFGSGTKLEIKR
notes: Chimeric, human IgG1 / kappa

OD450 [1]: 0.05 OD450
EC50 [2]: 0.16 nM
Maximum mean fluorescence intensity [2]: 25000 MFI
EC50 [3]: 0.49 nM
Maximum mean fluorescence intensity [3]: 37400 MFI
OD450 [4]: 0.06 OD450
OD450 [5]: 0.05 OD450
OD450 [6]: 0.05 OD450
OD450 [7]: 0.06 OD450
OD450 [8]: 0.06 OD450
OD450 [9]: 0.05 OD450
B3: F1.250.16 human-murine chimeric antibody (antibody, human IgG1, kappa, V domains shown)
VH: QVQLQQSGAEQVKPGASVKMSCKASGYTFTTYPIEWMKQNHGESLDWIGNIHPYNDDTEYNEKFKGKATLTVEKSSNTVFLELSRLTSDDSAVYYCVRGDYYNSRYWYFDVWGTGTTVTVSS
VL: DIVMTQSQKFMSTTVGDRVSITCKAGQNVRTAVAWYQQKPGQSPKLLIYSASTRYIGVPERFTGSGSGTDFTLTITNMQSEDLADYFCQQYSSFPLTFGTGTKLELKR
notes: Chimeric, human IgG1 / kappa; VL tied by name

OD450 [1]: 0.07 OD450
EC50 [2]: 0.37 nM
Maximum mean fluorescence intensity [2]: 24400 MFI
EC50 [3]: 0.81 nM
Maximum mean fluorescence intensity [3]: 27200 MFI
OD450 [4]: 0.08 OD450
OD450 [5]: 0.07 OD450
OD450 [6]: 0.06 OD450
OD450 [7]: 0.08 OD450
OD450 [8]: 0.07 OD450
OD450 [9]: 0.07 OD450
B4: F1.192.1 human-murine chimeric antibody (antibody, human IgG1, kappa, V domains shown)
VH: AVQLQQSGVELVRPGASVKLSCTGSDFNIKEDYIHWVKQRPEQGLEWIGWIDPENGDTEYASKFQGKATITADTSSNTAYLQLSSLTSEDTAVYYCATYGSLDYWGQGTTLTVSS
VL: DIKMTQSPSSMYAFLGERVTITCKASQGINSFLTWFQQKPGKSPKTLIYRANRLVDGVPSRFSGSGSGQDYSLTISSLEYEDVGIYYCLQYDEFPRTFGGGTKLEIKR
notes: Chimeric, human IgG1 / kappa

OD450 [1]: 0.05 OD450
EC50 [2]: 2.41 nM
Maximum mean fluorescence intensity [2]: 20800 MFI
EC50 [3]: 11.2 nM
Maximum mean fluorescence intensity [3]: 23000 MFI
OD450 [4]: 0.06 OD450
OD450 [5]: 0.05 OD450
OD450 [6]: 0.05 OD450
OD450 [7]: 0.07 OD450
OD450 [8]: 0.06 OD450
OD450 [9]: 0.05 OD450
B5: F1.200.11 human-murine chimeric antibody (antibody, human IgG1, kappa, V domains shown)
VH: QNQLVQSGPELKKPGETVKISCKASGYTFTTAGMQWVQKMPGKGFKWIGWINTLSGEPKYAEDFKGRFAFSLETSATTAYLQISNLKNEDTATYFCARAYYSNLYWYFDVWGTGTTVTVSS
VL: DIVMTQSQKFMSTTVGDRVTITCKASQNVVTAVAWYQQKPGQSPKVLIYSASNRYSGVPDRFTGSGSGTDFTLTISNMHSEDLANYFCHQYSSYPFTFGSGTKLEIKR
notes: Chimeric, human IgG1 / kappa

OD450 [1]: 0.05 OD450
EC50 [2]: 0.5 nM
Maximum mean fluorescence intensity [2]: 25000 MFI
EC50 [3]: 0.92 nM
Maximum mean fluorescence intensity [3]: 43800 MFI
OD450 [4]: 0.07 OD450
OD450 [5]: 0.05 OD450
OD450 [6]: 0.05 OD450
OD450 [7]: 0.16 OD450
OD450 [8]: 0.06 OD450
OD450 [9]: 0.05 OD450
B6: F1.280.1 human-murine chimeric antibody (antibody, human IgG1, kappa, V domains shown)
VH: QIQLVQSGPELKKPGETVKISCKASGYTFTTYGMSWVKQTPGKGLTWMGWINTDSGVPTYADDFKRRFAFSLEASATTAYLQINNLKNEDTATYFCARGGPDYWGQGTTLTVSS
VL: DILLTQSPATLSVTPGETVSLSCRASQSIYKNLHWYHQKSHRSPRLLIKYASDSISGIPSRFTGSGSGTNFTLSINSVKPEDEGIYYCLQGYIVPLTFGAGTKLELKR
notes: Chimeric, human IgG1 / kappa
